The values below come from PMC5386385, “DRP-1 is required for BH3 mimetic-mediated mitochondrial fragmentation and apoptosis” (Cell Death & Disease, 2017).

Data set [1] deals with WT MCL-1 fusion protein (N-terminal His6-tag fused to amino acids Glu173-Arg329, containing the BH3, BH1 and BH2 domains) (human) (UniProt Q07820). The data set can be described thus: differential scanning fluorimetry (thermal shift assay); purified MCL-1 proteins (10 uM) with or without the indicated concentrations of ligand, Sypro-Orange, thermal ramping 0.3 °C per min between 25 and 94 °C, final DMSO 4% v/v; ΔTm against buffer without peptide. On the technique in general: In DSF a fluorescence change marks the thermal transition of the protein.
Sequence of WT MCL-1 fusion protein (N-terminal His6-tag fused to amino acids Glu173-Arg329, containing the BH3, BH1 and BH2 domains) (human) (Q07820 173-329): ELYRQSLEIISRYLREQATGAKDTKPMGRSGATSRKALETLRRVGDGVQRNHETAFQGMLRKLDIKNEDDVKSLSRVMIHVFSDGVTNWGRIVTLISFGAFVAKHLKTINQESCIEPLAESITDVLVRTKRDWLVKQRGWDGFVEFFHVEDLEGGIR

Data set [2] addresses T1, WT MCL-1 fusion protein (N-terminal His6-tag fused to amino acids Glu173-Arg329, containing the BH3, BH1 and … (human, UniProt Q07820 173-329)).
T1 construct: human MCL-1, amino acids E173-R329 (BH3, BH1 and BH2 domains); the results once say 172-329; Cloned into pOPIN F; also called MCL-1 (E173-R329); MCL-1 protein (173-329); source: E. coli BL21 (DE3) pLysS, purified (Ni-NTA IMAC, Superdex 200 SEC)
The data set is described as above. The following applies: both partners purified.

T1 sequence (Q07820 173-329): as above

On to “MCL-1 SAHB (stabilised alpha-helix of BCL-2 domains, designed to mimic the BH3 binding helix of MCL-1) (peptide)”, for which, in data set [1], the thermal shift (ΔTm) at 10 uM was 4 °C.

B1: MS-1 (MCL-1 specific synthetic peptide) (peptide)
peptide: RPEIWMTQGLRRLGDEINAYYAR
notes: MCL-1 specific synthetic BH3 peptide; source: synthetic peptide (New England Peptide or GenScript)
Turning to B1, the “temperature shift (ΔTm) at equimolar peptide and MCL-1” value in data set [2] was roughly 10 °C.

B2: PUMA peptide (peptide)
peptide: EQWAREIGAQLRRMADDLNA
notes: synthetic BH3 peptide of PUMA; source: synthetic peptide (New England Peptide or GenScript)
On to B2, for which the binding result in data set [2] is “binds”.

B3: NOXA peptide (peptide)
peptide: AELPPEFAAQLRKIGDKVYC
notes: synthetic BH3 peptide of NOXA; source: synthetic peptide (New England Peptide or GenScript)
As for B3, the binding result in data set [2] is recorded as “binds”.
